# B1: SHI1 fused with the N-terminal portion of the luciferase [Arabidopsis thaliana] / FRY2/CPL1 fused with the C-terminal part of the luciferase [Arabidopsis thaliana] (parent complex)
# chain 1: MERSRSKRNYHYDQDYDGDSMPRSKPRYNNNYHFGGGGGGNNRYRGGGGGGGGNGRPSKSHPETMATTTYRILCHDAKAGGVIGKSGTIIKSIRQHTGAWINVHELVPGDAERIIEISDNRRRDPDGRMPSFSPAQEALFSVHDRILESEAQFGYGGPPPEEEEDYGGVRPGGGRVVTRLVVSRMHVGCLLGKGGKIIEQMRIETKTHIRILPRESNLPRCVSLSEEIVQIVGELNAVKNALAIVSSRLRESQHRDRSNFQGRSHSPERSFAAAGDDYMPQLRRQSSDRFPRGNFRNNNFSSRQSNYAEEAPAVPVGENVYSEELVFQILCPADKIVRVVGESQGIIDLLQNEIGVDVRVSDPVAGSDEQIITISSEEAPDDPFFPAQEALLHIQTQIIDLIPDKDNLITTRLLVPSRDSICLEGKAGSVSEISRLTGTSVQILAREEIPRCASINDVVIQITGEIRAAREALVELTLLLRSHMFKELSQKETPPASTSTTGPLEGVAGVMEVASSNNTIQSREGPTSSNLNLQQVSTILPQFKEGFGSVAKAGESEHREEVPVTTSRMAVPLVTRSTLEVVLPEAVVPKLVTKSRNKLAQISEWSGASVTIVEDRPEETQNIIRISGTPEQAERAQSLLQGFILSIQEDGP
# chain 2: MYSNNRVEVFHGDGRLGELEIYPSRELNQQQDDVMKQRKKKQREVMELAKMGIRISHFSQSGERCPPLAILTTISSCGLCFKLEASPSPAQESLSLFYSSCLRDNKTAVMLLGGEELHLVAMYSENIKNDRPCFWAFSVAPGIYDSCLVMLNLRCLGIVFDLDETLVVANTMRSFEDKIDGFQRRINNEMDPQRLAVIVAEMKRYQDDKNLLKQYIESDQVVENGEVIKVQSEIVPALSDNHQPLVRPLIRLQEKNIILTRINPMIRDTSVLVRMRPSWEELRSYLTAKGRKRFEVYVCTMAERDYALEMWRLLDPEGNLINTNDLLARIVCVKSGFKKSLFNVFLDGTCHPKMALVIDDRLKVWDEKDQPRVHVVPAFAPYYSPQAEAAATPVLCVARNVACGVRGGFFRDFDDSLLPRIAEISYENDAEDIPSPPDVSHYLVSEDDTSGLNGNKDPLSFDGMADTEVERRLKEAISASSAVLPAANIDPRIAAPVQFPMASASSVSVPVPVQVVQQAIQPSAMAFPSIPFQQPQQPTSIAKHLVPSEPSLQSSPAREEGEVPESELDPDTRRRLLILQHGQDTRDPAPSEPSFPQRPPVQAPPSHVQSRNGWFPVEEEMDPAQIRRAVSKEYPLDSEMIHMEKHRPRHPSFFSKIDNSTQSDRMLHENRRPPKESLRRDEQLRSNNNLPDSHPFYGEDASWNQSSSRNSDLDFLPERSVSATETSADVLHGIAIKCGAKVEYKPSLVSSTDLRFSVEAWLSNQKIGEGIGKSRREALHKAAEASIQNLADGYMRANGDPGPSHRDATPFTNENISMGNANALNNQPFARDETALPVSSRPTDPRLEGSMRHTGSITALRELCASEGLEMAFQSQRQLPSDMVHRDELHAQVEIDGRVVGEGVGSTWDEARMQAAERALSSVRSMLGQPLHKRQGSPRSFGGMSNKRLKPDFQRSLQRMPSSGRYS
# Variants of: B1
# Assay: split-luciferase complementation assay; co-expressed in Arabidopsis protoplasts; means ± SE (n = 3); parent: 160; read off a plot
row,response [RLU],Variant
1,~110,chain 1 E389K
